The values that follow come from publication PMC11574208, “Mechanistic basis of atypical TERT promoter mutations”.

Conditions in all cases: protein: recombinant;recombinant; tags: ;N-terminal His; copies: 1;1; label: 5'-32P on forward (C-rich) strand; blunt
Data set [1] addresses T1, GABPA (GABP alpha);GABPB (GABP beta1L) (human?;human?, UniProt Q06546;Q06547 1-454;1-395, |). The data set can be described thus: DNase I footprinting; 5 uM GABP; bound via native site, not at the unmutated proto-sites; 20 mM Tris-Cl pH 7.5, 5% glycerol, 5.2 mM MgCl2, 50 mM KCl, 1 mM TCEP, 20 nM oligo, 1 h room temperature; EMSA on 4% native PAGE, 0.5x TBE, 4 C. (In general: Mobility shift assays separate free from complexed probe on a gel.)

Data set [2] addresses T1, GABPA (GABP alpha);GABPB (GABP beta1L). The data set is described as follows: DNase I footprinting; 5 uM GABP; -124 de novo site and native site; 20 mM Tris-Cl pH 7.5, 5% glycerol, 5.2 mM MgCl2, 50 mM KCl, 1 mM TCEP, 20 nM oligo, 1 h room temperature; EMSA on 4% native PAGE, 0.5x TBE, 4 C.
For data set [3] the target is unchanged. The data set is described as follows: DNase I footprinting; 5 uM GABP; -146 de novo site and native site; 20 mM Tris-Cl pH 7.5, 5% glycerol, 5.2 mM MgCl2, 50 mM KCl, 1 mM TCEP, 20 nM oligo, 1 h room temperature; EMSA on 4% native PAGE, 0.5x TBE, 4 C.

T1 sequence (Q06546 whole entry, chain 1 of 2): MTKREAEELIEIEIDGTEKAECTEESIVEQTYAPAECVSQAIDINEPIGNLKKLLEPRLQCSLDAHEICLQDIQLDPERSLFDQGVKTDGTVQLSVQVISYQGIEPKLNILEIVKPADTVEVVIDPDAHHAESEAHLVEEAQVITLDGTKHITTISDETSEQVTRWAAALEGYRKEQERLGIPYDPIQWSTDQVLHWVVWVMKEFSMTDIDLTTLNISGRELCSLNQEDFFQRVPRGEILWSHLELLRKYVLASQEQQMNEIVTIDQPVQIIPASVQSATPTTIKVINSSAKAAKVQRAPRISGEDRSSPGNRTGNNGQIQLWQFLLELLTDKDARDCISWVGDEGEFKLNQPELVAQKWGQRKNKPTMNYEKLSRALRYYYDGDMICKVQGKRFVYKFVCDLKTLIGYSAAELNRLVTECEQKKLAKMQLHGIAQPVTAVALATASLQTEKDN
T1 sequence (Q06547 whole entry, chain 2 of 2): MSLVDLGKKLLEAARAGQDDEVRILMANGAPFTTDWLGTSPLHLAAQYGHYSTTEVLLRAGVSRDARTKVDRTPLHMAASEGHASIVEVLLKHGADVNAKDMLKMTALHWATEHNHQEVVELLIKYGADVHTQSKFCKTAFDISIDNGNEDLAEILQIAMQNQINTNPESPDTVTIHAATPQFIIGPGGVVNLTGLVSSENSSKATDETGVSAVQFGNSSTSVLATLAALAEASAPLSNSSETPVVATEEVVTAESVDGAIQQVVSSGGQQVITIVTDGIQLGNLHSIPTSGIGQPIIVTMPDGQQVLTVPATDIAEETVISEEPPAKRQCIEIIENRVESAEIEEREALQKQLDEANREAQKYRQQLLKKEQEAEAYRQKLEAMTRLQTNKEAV

B1: TERTp WT 90 (dsDNA)
DNA 1: ACCCCGCCCCGTCCCGACCCCTCCCGGGTCCCCGGCCCAGCCCCCTCCGGGCCCTCCCAGCCCCTCCCCTTCCTTTCCGCGGCCCCGCCC
DNA 2: GGGCGGGGCCGCGGAAAGGAAGGGGAGGGGCTGGGAGGGCCCGGAGGGGGCTGGGCCGGGGACCCGGGAGGGGTCGGGACGGGGCGGGGT
Turning to B1, the binding result in data set [1] is given as “binds”.

B2: TERTp -124 mutant 90 (C228T) (dsDNA)
DNA 1: ACCCCGCCCCGTCCCGACCCCTCCCGGGTCCCCGGCCCAGCCCCTTCCGGGCCCTCCCAGCCCCTCCCCTTCCTTTCCGCGGCCCCGCCC
DNA 2: GGGCGGGGCCGCGGAAAGGAAGGGGAGGGGCTGGGAGGGCCCGGAAGGGGCTGGGCCGGGGACCCGGGAGGGGTCGGGACGGGGCGGGGT
On to B2, for which, in data set [2], the binding result is on record as “binds”.

B3: TERTp -146 mutant 90 (C250T) (dsDNA)
DNA 1: ACCCCGCCCCGTCCCGACCCCTTCCGGGTCCCCGGCCCAGCCCCCTCCGGGCCCTCCCAGCCCCTCCCCTTCCTTTCCGCGGCCCCGCCC
DNA 2: GGGCGGGGCCGCGGAAAGGAAGGGGAGGGGCTGGGAGGGCCCGGAGGGGGCTGGGCCGGGGACCCGGAAGGGGTCGGGACGGGGCGGGGT
As for B3, in data set [3], the binding result is on record as “binds”.
